Data on 1 substance can be found in US20230183318A1.

The target of this assay is PD-L1. Briefly: -; literature value (Cheng et al., 2013).

By Kd is commonly meant the free concentration of one partner at which half of the binding sites on the other are occupied at equilibrium, for simple one-to-one binding. The low end stands for a tighter complex, the high end for a looser complex. The substance PD-1 WT registered a Kd of 8.2 µM.
